Results from publication PMC4046962.

Target: SiaM (Streptomyces sp. A7248)
Experiment: small-angle X-ray scattering (SAXS); SiaM in 10 mM Na2HPO4, 1.8 mM KH2PO4, 400 mM Na2SO4, pH 8.3, 4°C; curves of monomer, two dimers and tetramer fitted with CRYSOL; mixture analysed with OLIGOMER

SiaM (enzyme)
stoichiometry N: 4
